Among the data in article PMC2645937 are Kd and percent cross-linked values, retold here.

The target of assay [1] is ribonucleotide reductase β2 (Escherichia coli) (UniProt P69924). To be noted: cited from earlier work.
Assay [2] addresses E. coli ribonucleotide reductase large subunit α2 (E. coli) (UniProt P00452). Description: cross-linking.
Assay [3] has as its target DAN-β2(V351C): (His)6-β2-C268S/C305S/V351C labelled with dimethylaminonaphthalene (E. coli). In words: other fluorescence titration.

By Kd is commonly meant the equilibrium constant for the complex coming apart.

Take “ribonucleotide reductase α2 (from UniProt P00452)”: the Kd in assay [1] is 200 nM.
Molecule “BP-β2(Y356C): (His)6-β2-C268S/C305S/Y356C labelled with benzophenone (enzyme)” returned a percent cross-linked in assay [2] of 9%.
Still for that read-out and setting: the value for “BP-β2(V365C): (His)6-β2-C268S/C305S/V365C labelled with benzophenone (enzyme)” was 19%.

B1: E. coli ribonucleotide reductase large subunit α2 (enzyme)
chain: MNQNLLVTKRDGSTERINLDKIHRVLDWAAEGLHNVSISQVELRSHIQFYDGIKTSDIHETIIKAAADLISRDAPDYQYLAARLAIFHLRKKAYGQFEPPALYDHVVKMVEMGKYDNHLLEDYTEEEFKQMDTFIDHDRDMTFSYAAVKQLEGKYLVQNRVTGEIYESAQFLYILVAACLFSNYPRETRLQYVKRFYDAVSTFKISLPTPIMSGVRTPTRQFSSCVLIECGDSLDSINATSSAIVKYVSQRAGIGINAGRIRALGSPIRGGEAFHTGCIPFYKHFQTAVKSCSQGGVRGGAATLFYPMWHLEVESLLVLKNNRGVEGNRVRHMDYGVQINKLMYTRLLKGEDITLFSPSDVPGLYDAFFADQEEFERLYTKYEKDDSIRKQRVKAVELFSLMMQERASTGRIYIQNVDHCNTHSPFDPAIAPVRQSNLCLEIALPTKPLNDVNDENGEIALCTLSAFNLGAINNLDELEELAILAVRALDALLDYQDYPIPAAKRGAMGRRTLGIGVINFAYYLAKHGKRYSDGSANNLTHKTFEAIQYYLLKASNELAKEQGACPWFNETTYAKGILPIDTYKKDLDTIANEPLHYDWEALRESIKTHGLRNSTLSALMPSETSSQISNATNGIEPPRGYVSIKASKDGILRQVVPDYEHLHDAYELLWEMPGNDGYLQLVGIMQKFIDQSISANTNYDPSRFPSGKVPMQQLLKDLLTAYKFGVKTLYYQNTRDGAEDAQDDLVPSIQDDGCESGACKI
Turning to B1, the Kd in assay [3] was determined as 380 nM.
